Measured values published in PMC7954794, “Protein context shapes the specificity of SH3 domain-mediated interactions in vivo” (Nature Communications, 2021).

B1: YKL117W_2 (protein, UniProt P28707 2-216, looked up)
Co-chaperone protein SBA1: SDKVINPQVAWAQRSSTTDPERNYVLITVSIADCDAPELTIKPSYIELKAQSKPHVGDENVHHYQLHIDLYKEIIPEKTMHKVANGQHYFLKLYKKDLESEYWPRLTKEKVKYPYIKTDFDKWVDEDEQDEVEAEGNDAAQGMDFSQMMGGAGGAGGAGGMDFSQMMGGAGGAGSPDMAQLQQLLAQSGGNLDMGDFKENDEEDEEEEIEPEVKA
B2: YGL099W_1 (protein, UniProt P53145 1-640, looked up)
Large subunit GTPase 1: MPPKEAPKKWKAPKGPKPTHRKNKNKLELGRAIKYARQKENAIEYLPDGEMRFTTDKHEANWVKLRSVTQESALDEFLSTAALADKDFTADRHSNVKIIRMDSGNDSATSQGFSMTNEQRGNLNAKQRALAKDLIVPRRPEWNEGMSKFQLDRQEKEAFLEWRRKLAHLQESNEDLLLTPFERNIEVWKQLWRVVERSDLVVQIVDARNPLLFRSVDLERYVKESDDRKANLLLVNKADLLTKKQRIAWAKYFISKNISFTFYSALRANQLLEKQKEMGEDYREQDFEEADKEGFDADEKVMEKVKILSIDQLEELFLSKAPNEPLLPPLPGQPPLINIGLVGYPNVGKSSTINSLVGAKKVSVSSTPGKTKHFQTIKLSDSVMLCDCPGLVFPNFAYNKGELVCNGVLPIDQLRDYIGPAGLVAERIPKYYIEAIYGIHIQTKSRDEGGNGDIPTAQELLVAYARARGYMTQGYGSADEPRASRYILKDYVNGKLLYVNPPPHLEDDTPYTREECEEFNKDLYVFDRLPDTRKEQVQNAAKAKGIDIVDLARDLNQLTFSAHTGGDTQKEAKSVTHGGKQAALYNAAEDLDRDFFKMNNVEGRLSTPFHKVQNSSAGKRHNKKNKSKNAKSKVFSIENN
B3: YNL094W_1 (protein, UniProt P53933 1-587, looked up)
Phosphatidate phosphatase APP1: MNSQGYDESSSSTAATSGPTSGDPRMGKKQRFMNLIRTTKDVYIPNLTSSISQKTMDGIRSTTNSFEGYNDLPMELPHNTTITYFPTYTTTNLVDPDGLSAPRKDFETTVRCAVSYPGNPTSRRNRWLLSLCKQYLRTGTAEADVAPVVPPHLEEDSGDLNDSQSSIESSLSSKSENRYSHMGIQEEDVLNERIQGFLSKKVPNTPVVVDLLPKDKLRGDTASFFGTTDSYGNLLIKAETDFLPSKINITLDTPIEGHADPISETFPANYVSPYGIGLISDIDDTIKHTGVTGDRRSMFRNVFIHDVQSWVIDGVPLWYKTLHDVADVDFFYVSNSPIQTFTLLKQYICANFPPGPIFLKQYSGNFFSTIMTSSANRKIQPIANILKDFPKKKFILVGDSGEHDLEAYTTTALQFPNQILAIYIRCCSNSMSDVPSHDEEVMNEVNNIIELQQRPMQMTKSTVRTRRRPPPPPIPSTQKPSLTEEQTESIRMSRRNKDENNAKRVAPPPLPNRQLPNLDANTYYVPSSQNDYGMYGAFMDKKADEWKRRVMDSIQKLSNQDTTLMFFSDPALSLEDSIRRIREKYSN
B4: YOR284W_1 (protein, UniProt Q12134 1-243, looked up)
Protein HUA2: MQQTKFGKMYLDHDSVVEYSEDEIVEADRITLGYKKRLSMIENQMRHLLEDFSLDVQQIEPILADLQKYYDAFLQLLQKRNKSLQCKRSTHQPVPSPMNSQTSTNAKVNLSGKLMKFQLNSVQKFDEENILRILQNKIEFEHYFQIDKGKKQKVLLLAVYQCLNGPTRLHKVLNIEGIIHNNSIRTILGKQVSSSKWTVFLYDVKLVLLAHRQDVPNLETSKMIVRYGDLFPCALYFKDHTAY
B5: YPR055W_1 (protein, UniProt P32855 1-1065, looked up)
Exocyst complex component SEC8: MDYLKPAQKGRRRGLSINSLSETQQSAMNSSLDHLQNDLNRINLQWNRILSDNTNPLELALAFLDDTSVGLGHRYEEFNQLKSQIGSHLQDVVNEHSQVFNTNVASYGKAVSSIMQAQEQTLNLKNCLKEANEKITTDKGSLQELNDNNLKYTKMIDVLVNIEELLQIPEKIEENIRKENFHQVQILLERGFILMNNKSLKTVEILKPINQQLELQEHLLFNNLIEEIHDIMYSKSNKTNFTRVTNNDIFKIISISHNGFTSLENYLYNIVNIDIMEHSKTINKNLEQFIHDQSLNKGNIMLQENAATQAPLAPSRNQENEGFNRIGFLLKTINNINKLPVAFNIITERAKEEIHNIIVKSTESIRSKHPSLLKMATSLKNDNHFGLPVQDILSIILRECFWEIFLKLLYAIQCHRAIFEMSNILQPTSSAKPAFKFNKIWGKLLDEIELLLVRYINDPELISSNNGSIKPINGATNNAPTLPKRKNPKIFSLEYNIEDNSSVKDQAFELKALLKDIFPGFSVSSNMDLDSIYVKDESFEQDEPLVPPSVFNMKVILDPFLLFTQSTSTIVPSVLTQNTISSLTFFDDYMNKSFLPKIQMTMDYLFTVEVESNNPYALELSDENHNIFKTALDFQRLFYNLLNVFNTANTFREKISYCILDLLNHFYNYYLGLFNSLIGTSDRHLTRKIITAWLQNGILMDQEQKILNGDETLFHEESIELFKEIPHFYQAGKGLSKSDLFNNLTLDTILQFSASVLWILNWLPGLKKAINIDEVSQEPMLDADRLRSSWTFSESMDLNYSNPSSSPNSLGNLKILLDDKASKKFDETIDGFKTLKFKLITILRFNIRALCIYDIGSFFQNTKIWNMDVGSIELDQNIASLISELRRTESKLKQQLPEKEKNSIFIGLDIVNNYALIKGAKSIKVLNHNGIKKMLRNVNVLQHAYRNLSSEPSKINMNVTMNFYSLCGSSEAELFEYIKDNELPHCSVEDLKTILRLQFSEEMHRQLKRQSTSSTKGSIKPSNKRYTEALEKLSNLEKEQSKEGARTKIGKLKSKLNAVHTANEK

Test system: PPIs identified as affected by the SH3 domain deletions
Experiment: Liquid DHFR-PCA low-throughput validation of PPIs affected by SH3 deletion (Fig. S1D-E)
Type: cell-based, Saccharomyces cerevisiae
Conditions: label = prey, liquid DHFR-PCA, prey _1 = lost, _2 = gained in screen
Method: Liquid DHFR-PCA low-throughput experiments were performed to validate the PPIs identified as affected by the SH3 domain deletions in the high-throughput solid DHFR-PCA screen (256 PPIs weaker or lost and 116 PPIs stronger or gained following domain deletions). Mating and the diploid selection were performed as described for the large-scale experiment, with the exception that the plates were in 384 formats. Following the second diploid selection, diploid cells were inoculated in a 96 v-shaped well plate using a robotically manipulated 96 pin tool in a synthetic complete medium with MSG at pH 6.0 with NAT and HPH. After 48 h of growth, optical density (OD) was read using a TECAN Infinite F200 Pro, and dilutions to 1 OD in sterile nanopure water were prepared. Cells were then diluted to 0.1 OD by combining 25 µl of cell suspension at OD = 1 and 225 µl of PCA selection media without agar in a 96-wells plate. Plates were incubated at 30 °C in a TECAN Infinite M Nano and OD was monitored each 15 min for 72 h.

Row | Molecule | Ratio (Deletedscore / WTscore) (bait ABP1) | Ratio (Deletedscore / WTscore) (bait BZZ1-2) | Ratio (Deletedscore / WTscore) (bait LSB3) | Ratio (Deletedscore / WTscore) (bait RVS167) | Ratio (Deletedscore / WTscore) (bait BEM1-1) | Ratio (Deletedscore / WTscore) (bait BEM1-2)
1 | B1 | 1.066 | 1.596 | 1.715 | 1.422 | – | –
2 | B2 | 1.003 | – | – | – | – | –
3 | B3 | 0.4956 | – | – | – | – | –
4 | B4 | 0.3885 | – | – | – | – | –
5 | B5 | 0.936 | – | 0.783 | – | 1.037 | 0.6358
